Measurements reported in US20040248787A1.

Biological target: normal MITF (M type), expressed from plasmid pSU063 (MITF-M/pCDNA3) in COS7 cells (UniProt Q08874)
Assay: cell-based or functional assay

UniProt Q08874, sequence (Q08874 other isoform, or with tags, fused parts or gaps limits assumed): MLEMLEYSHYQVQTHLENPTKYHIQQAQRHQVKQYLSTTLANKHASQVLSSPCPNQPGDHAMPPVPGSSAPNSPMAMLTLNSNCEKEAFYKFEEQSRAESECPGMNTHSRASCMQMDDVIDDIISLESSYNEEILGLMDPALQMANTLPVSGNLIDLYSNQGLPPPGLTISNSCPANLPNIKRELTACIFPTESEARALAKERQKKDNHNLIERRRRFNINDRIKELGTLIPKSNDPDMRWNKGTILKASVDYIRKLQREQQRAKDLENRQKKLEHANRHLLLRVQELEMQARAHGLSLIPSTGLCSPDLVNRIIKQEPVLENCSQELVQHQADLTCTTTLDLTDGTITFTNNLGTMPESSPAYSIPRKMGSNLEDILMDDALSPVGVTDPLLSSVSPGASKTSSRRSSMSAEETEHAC

Substance	Luciferase activity (c-kit promoter R-luc reporter in COS7 cells, PBS addition taken as 1) (relative to PBS = 1)
His Tag-PTD-mi variant of MITF (from UniProt Q08874 119-526)	0.92
His Tag-PTD-wh variant of MITF (from UniProt Q08874 119-526)	0.72
